Data: US20200247855A1, “THERAPY AND DIAGNOSTICS” (OXFORD UNIVERSITY INNOVATION LIMITED, priority 2017, published 2020)
Positions count from the first letter of the chain named.

Assays:
[1] = molecular target: CCL2_HUMAN (Homo sapiens, UniProt P13500); assay: Biolayer interferometry (BLI) binding
In short: (§1)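 Binding was measured by biolayer interferometry with the His-tagged tick protein bound to Ni-NTA sensors. A single-concentration screen used chemokine at 300 nM. Chemokines that bound were retested over multiple doses, and Kd was calculated from fitted curves.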

[2] = molecular target: T1, CCL17_HUMAN (Homo sapiens, UniProt Q92583); assay: Biolayer interferometry (BLI) binding
T1 sequence (Q92583 24-94): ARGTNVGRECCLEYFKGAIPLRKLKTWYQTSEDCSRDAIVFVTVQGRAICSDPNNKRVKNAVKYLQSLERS
In short: as §1

[3] = molecular target: T2, CCL1_HUMAN (Homo sapiens, UniProt P22362); assay: Biolayer interferometry (BLI) binding
T2 sequence (P22362 24-96): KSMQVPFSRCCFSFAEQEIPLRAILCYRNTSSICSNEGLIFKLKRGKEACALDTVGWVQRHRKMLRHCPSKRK
In short: as §1

[4] = molecular target: T3, CCL19_HUMAN (Homo sapiens, UniProt Q99731); assay: Biolayer interferometry (BLI) binding
T3 sequence (Q99731 22-98): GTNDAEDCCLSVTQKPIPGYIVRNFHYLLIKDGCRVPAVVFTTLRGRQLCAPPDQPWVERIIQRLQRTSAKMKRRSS
In short: as §1

[5] = molecular target: T4, CCL4L1_HUMAN (Homo sapiens, UniProt Q8NHW4); assay: Biolayer interferometry (BLI) binding
T4 sequence (Q8NHW4 24-92): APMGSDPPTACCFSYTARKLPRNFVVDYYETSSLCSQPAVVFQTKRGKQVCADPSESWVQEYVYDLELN
In short: as §1

[6] = molecular target: T5, CCL22_HUMAN (Homo sapiens, UniProt O00626); assay: Biolayer interferometry (BLI) binding
T5 sequence (O00626 25-93): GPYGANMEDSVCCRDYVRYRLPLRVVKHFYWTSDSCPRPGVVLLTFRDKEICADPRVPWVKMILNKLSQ
In short: as §1

[7] = molecular target: T6, CCL4_HUMAN (Homo sapiens, UniProt P13236); assay: Biolayer interferometry (BLI) binding
T6 sequence (P13236 24-92): T4 sequence (Q8NHW4 24-92) with G47S
In short: as §1

[8] = molecular target: T7, CCL24_HUMAN (Homo sapiens, UniProt O00175); assay: Biolayer interferometry (BLI) binding
T7 sequence (O00175 27-119): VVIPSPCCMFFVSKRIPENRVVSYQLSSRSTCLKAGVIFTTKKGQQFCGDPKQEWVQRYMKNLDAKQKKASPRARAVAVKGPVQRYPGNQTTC
In short: as §1

[9] = molecular target: T8, CCL5_HUMAN (Homo sapiens, UniProt P13501); assay: Biolayer interferometry (BLI) binding
T8 sequence (P13501 24-91): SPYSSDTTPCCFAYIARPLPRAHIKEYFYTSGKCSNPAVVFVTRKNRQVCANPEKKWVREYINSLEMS
In short: as §1

[10] = molecular target: CCL20_HUMAN (Homo sapiens, UniProt P78556); assay: Biolayer interferometry (BLI) binding
CCL20_HUMAN, sequence (P78556 27-96): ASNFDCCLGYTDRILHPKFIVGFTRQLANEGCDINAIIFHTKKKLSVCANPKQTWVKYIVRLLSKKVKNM
In short: as §1

[11] = molecular target: T9, CCL27_HUMAN (Homo sapiens, UniProt Q9Y4X3); assay: Biolayer interferometry (BLI) binding
T9 sequence (Q9Y4X3 25-112): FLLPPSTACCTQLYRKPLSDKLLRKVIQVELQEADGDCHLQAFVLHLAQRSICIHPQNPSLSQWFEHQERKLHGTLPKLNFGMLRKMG
In short: as §1

[12] = molecular target: T9, CCL27_HUMAN; conditions: data obtained from publications [20-22,32]; cited from earlier work

CCL2_HUMAN, sequence (P13500 24-99): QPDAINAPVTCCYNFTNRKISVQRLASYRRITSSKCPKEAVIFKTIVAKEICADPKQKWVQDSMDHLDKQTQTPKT

B1: P672_RHIPU: tick CKBP, Rhipicephalus pulchellus (protein, listed as Rhipicephalus pulchellus)
chain: VCEVSEQEGVGEDNATEDEDYEDFFKPVTCYFANSTVGPLRPPNCTVVCTNNTAWWNDTKSDGGHCYSEYRPEKRTHSREIYNCTIGVCGNGTCIANHTYADCW
- Kd [1]: 9.1 nM

B2: P1243_AMBAM: tick CKBP, Amblyomma americanum; AAM-02 stated identical (protein, listed as Amblyomma americanum)
chain: RNHTEDNSTEYYDYEEARCACPARHLNNTNGTVLKLLGCHYFCNGTLCTAPDGYPCYNLTAQQVRTLTTYPNTSCAVGVCMKGTCVKNGTMEQCFKTP
- Kd [2]: 0.734 nM
- Kd [3]: 21.3 nM
- Kd [4]: 0.592 nM
- Kd [5]: 35.4 nM
- Kd [6]: 22.3 nM
- Kd [7]: 15.3 nM
- Kd [8]: 7.39 nM
- Kd [9]: 1.74 nM
- Kd [10]: 8.34 nM
- Kd [11]: 15.1 nM

B3: EVASIN4: previously described tick CKBP evasin 4, from Rhipicephalus sanguineus (protein, listed as Rhipicephalus sanguineus)
chain: EVPQMTSSSAPDLEEEDDYTAYAPLTCYFTNSTLGLLAPPNCSVLCNSTTTWFNETSPNNASCLLTVDFLTQDAILQENQPYNCSVGHCDNGTCAGPPRHAQCW
- Kd, CCL27_HUMAN, previously described evasins [12]: No Binding
